Target: the molecule itself
Assay: cryo-EM structure

B1: DNA polymerase γ accessory subunit PolγB (natural protein, human, UniProt Q9UHN1 26-485, looked up)
chain: DAGQPELLTERSSPKGGHVKSHAELEGNGEHPEAPGSGEGSEALLEICQRRHFLSGSKQQLSRDSLLSGCHPGFGPLGVELRKNLAAEWWTSVVVFREQVFPVDALHHKPGPLLPGDSAFRLVSAETLREILQDKELSKEQLVAFLENVLKTSGKLRENLLHGALEHYVNCLDLVNKRLPYGLAQIGVCFHPVFDTKQIRNGVKSIGEKTEASLVWFTPPRTSNQWLDFWLRHRLQWWRKFAMSPSNFSSSDCQDEEGRKGNKLYYNFPWGKELIETLWNLGDHELLHMYPGNVSKLHGRDGRKNVVPCVLSVNGDLDRGMLAYLYDSFQLTENSFTRKKNLHRKVLKLHPCLAPIKVALDVGRGPTLELRQVCQGLFNELLENGISVWPGYLETMQSSLEQLYSKYDEMSILFTVLVTETTLENGLIHLRSRDTTMKEMMHISKLKDFLIKYISSAKNV
  stoichiometry N: 2

From PMC10920075 (Nature structural & molecular biology, 2023)
